Data set [1] concerns the target EL222 L120K variant (Erythrobacter litoralis HTCC2594). Nature of the data set: SEC-MALS. A general note: SEC sorts molecules by how far they enter the pores of the column.
Data set [2] deals with EL222 S137Y variant (Erythrobacter litoralis HTCC2594). Nature of the data set: SEC-MALS.
Data set [3] deals with EL222 V41I:L52I:A79Q:V121I variant (AQTrip) (Erythrobacter litoralis HTCC2594). Nature of the data set: SEC-MALS.
The target is the same in data set [4]. Briefly: SEC-MALS. This is another data set of the same source.
The target is the same in data set [5]. Nature of the data set: SEC-MALS. This is another data set of the same source.
Data set [6] concerns the molecule itself. Nature of the data set: native gel or EMSA. A general note: Mobility shift assays separate free from complexed probe on a gel.

Where two headings read alike, the source gives them in different places.

By stoichiometry N is commonly meant a count of units in the complex or per binding partner. In the case of EL222 L120K variant (natural protein), the stoichiometry N in data set [1] turned out to be 2. As to EL222 S137Y variant (natural protein), the stoichiometry N in data set [2] is 2.

Turning to “EL222 V41I:L52I:A79Q:V121I variant (AQTrip) (natural protein)”, the stoichiometry N in data set [3] is 2; in data set [4], 4; in data set [5], 2.

B1: His6-Gβ1-tagged wild-type EL222 (natural protein, Erythrobacter litoralis HTCC2594, UniProt Q2NB98 1-225, looked up)
chain: MLDMGQDRPIDGSGAPGADDTRVEVQPPAQWVLDLIEASPIASVVSDPRLADNPLIAINQAFTDLTGYSEEECVGRNCRFLAGSGTEPWLTDKIRQGVREHKPVLVEILNYKKDGTPFRNAVLVAPIYDDDDELLYFLGSQVEVDDDQPNMGMARRERAAEMLKTLSPRQLEVTTLVASGLRNKEVAARLGLSEKTVKMHRGLVMEKLNLKTSADLVRIAVEAGI
On to B1, for which the “stoichiometry N” value in data set [6] turned out to be 2.

The values are drawn from publication PMC3813961 (Biochemistry, 2013).
